Assay results reported in the supplement of paper PMC12783771.
± gives the standard deviation of the averaged measurements.

B1: library; numbered along this chain (parent)
chain: MNIQIGELAKRTACPVVTIRFYEQEGLLPPPGRSRGNFRLYGEEHVERLQFIRHCRSLDMPLSDVRTLLSYRKRPDQDCGEVNMLLDEHIRQVESRIGALLELKHHLVELREACSGARPAQSCGILQGLSDCVCDTRGTTAHPSD

Tests used:
[1] = variants of: B1; test: sfGFP reporter fluorescence (15 h) (µM FITC); higher = higher leak; settings: library round: Round 0; ligand: none
Experimental: (§1)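 Cell-free (BL21 Star DE3 extract, PANOx-SP) biosensing: 1 µL Echo-assembled reactions with linear PbrR variant templates (5 nM) and pPbrR-sfGFP reporter, with 1 µM Pb (lead chloride), 30 µM Zn (zinc acetate) or no ligand; endpoint sfGFP fluorescence after 15 h at 30 °C, calibrated as µM FITC. Round 0 library (alanine scan, site saturation, combinatorial) of PbrR from Cupriavidus metallidurans; 2 biological replicates.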

[2] = variants of: B1; test: sfGFP reporter fluorescence (15 h) (µM FITC); higher = stronger transcriptional activation; settings: library round: Round 0
Experimental: as §1

Variant	sfGFP reporter fluorescence [1]	sfGFP reporter fluorescence ([2]; ligand: 1 µM Pb)	sfGFP reporter fluorescence ([2]; ligand: 30 µM Zn)
D59A	0.0693 ± 0.0036	0.0755 ± 0.001	0.291 ± 0.014
S63A	0.0607 ± 0.00078	0.0733 ± 0.0026	0.725 ± 0.037
P61N D64K	0.232 ± 0.0052	0.762 ± 0.12	3.05 ± 0.076
L28T	0.0647 ± 0.0013	0.0691 ± 0.0013	0.166 ± 0.031
D76A	0.06157 ± 0.00052	0.0614 ± 0.0034	0.202 ± 0.013
R111L	0.0552 ± 0.0013	0.06469 ± 0.00026	0.2 ± 0.016
R111V	0.0586 ± 0.001	0.0744 ± 0.0021	0.483 ± 0.0073
R111T	0.0599 ± 0.00078	0.07752 ± 0.00026	0.535 ± 0.081
R111E	0.05864 ± 0.00052	0.0684 ± 0.00078	0.267 ± 0.013
R111I	0.0544 ± 0.00078	0.0662 ± 0.0013	0.288 ± 0.0036
R111C	0.0572 ± 0.0021	0.077 ± 0.0042	0.157 ± 0.0054
R111S	0.06102 ± 0.00026	0.0951 ± 0.0023	1.14 ± 0.11
L129N	0.0586 ± 0.0015	0.05827 ± 0.00052	0.0535 ± 0.0036
L129M	0.0577 ± 0.00078	0.05901 ± 0.00052	0.0788 ± 0.0047
L129H	0.0586 ± 0.0015	0.0586 ± 0.0021	0.0583 ± 0.0015
I97M	0.0574 ± 0.0023	0.057 ± 0.0023	0.2807 ± 0.00052
I97D	0.0596 ± 0.0044	0.0575 ± 0.001	0.193 ± 0.0054
I97E	0.0574 ± 0.0044	0.0618 ± 0.0018	0.386 ± 0.055
I97P	0.0542 ± 0.0036	0.0561 ± 0.001	0.135 ± 0.0036
E43R	0.0643 ± 0.00078	0.111 ± 0.025	2.24 ± 0.12
E43P	0.05736 ± 0.00026	0.0674 ± 0.0093	0.7191 ± 0.0047
N83W	0.059 ± 0.0031	0.0748 ± 0.0042	0.0619
N83L	0.0585 ± 0.0018	0.07 ± 0.0088	0.0575 ± 0.0031

Variant	sfGFP reporter fluorescence [1]	sfGFP reporter fluorescence ([2]; ligand: 1 µM Pb)	sfGFP reporter fluorescence ([2]; ligand: 30 µM Zn)
N83D	0.0614 ± 0.0013	0.0607 ± 0.0013	1.003 ± 0.0065
E94P	0.0535 ± 0.0026	0.0533 ± 0.0023	0.05571 ± 0.00052
E94A	0.0738 ± 0.0044	0.0867 ± 0.0065	0.333 ± 0.015
E94R	0.0597 ± 0.0052	0.0803 ± 0.0031	0.722 ± 0.032
E94Y	0.0577 ± 0.0034	0.0553 ± 0.0047	0.153 ± 0.0047
G128E	0.0599 ± 0.00078	0.0713 ± 0.0013	0.535 ± 0.051
G128C	0.0629 ± 0.0018	0.0964 ± 0.0036	0.16 ± 0.008
E109Q	0.0601	0.0823 ± 0.0034	1.08 ± 0.25
E109K	0.0649 ± 0.001	0.09492 ± 0.00052	2.2 ± 0.14
E109G	0.05644 ± 0.00052	0.0695 ± 0.0013	0.793 ± 0.063
E109L	0.0586 ± 0.001	0.0907 ± 0.0029	1.12 ± 0.12
E109D	0.0597 ± 0.0021	0.0727 ± 0.0023	0.674 ± 0.02
E109C	0.0596 ± 0.00078	0.0867 ± 0.0054	1.54 ± 0.077
L85T	0.0601 ± 0.0015	0.057 ± 0.0013	0.1118 ± 0.00052
L85V	0.0585 ± 0.0018	0.0594 ± 0.0026	0.1479 ± 0.0013
C114W	0.0586 ± 0.001	0.0592 ± 0.0013	0.05241 ± 0.00052
C114R	0.0594 ± 0.001	0.06029 ± 0.00026	0.0564 ± 0.0015
C114M	0.05937 ± 0.00052	0.0603 ± 0.0013	0.0616 ± 0.0015
C114K	0.0583 ± 0.0031	0.0586 ± 0.001	0.0563 ± 0.0029
L107N	0.0546 ± 0.0047	0.0759 ± 0.0015	0.511 ± 0.027
L107S	0.12 ± 0.0091	0.5454 ± 0.0042	2.27 ± 0.042
T139A	0.0616 ± 0.0015	0.0737 ± 0.0036	0.7601 ± 0.0031
P61N D64K K104V G128M	0.739 ± 0.021	1.592 ± 0.0036	3.375 ± 0.019

Variant	sfGFP reporter fluorescence [1]	sfGFP reporter fluorescence ([2]; ligand: 1 µM Pb)	sfGFP reporter fluorescence ([2]; ligand: 30 µM Zn)
V46C	0.0531 ± 0.0026	0.0781 ± 0.0021	0.574 ± 0.01
V46D	0.0581 ± 0.0034	0.0612 ± 0.0015	0.0735 ± 0.0013
V46A	0.0619 ± 0.0031	0.0757 ± 0.0023	0.682 ± 0.097
E112N	0.06212 ± 0.00026	0.079 ± 0.0029	1.04 ± 0.13
E112T	0.0605	0.0804 ± 0.0029	0.857 ± 0.06
F21L	0.0612 ± 0.001	0.0581 ± 0.0013	0.0696 ± 0.001
F21K	0.0607 ± 0.0013	0.06157 ± 0.00052	0.0641
F21S	0.06341 ± 0.00052	0.0608 ± 0.001	0.06304 ± 0.00052
F21M	0.0599 ± 0.0013	0.0619 ± 0.0021	0.09 ± 0.0086
F21A	0.059	0.0541 ± 0.0013	0.0673 ± 0.0013
G32A	0.0614 ± 0.0013	0.0586 ± 0.0052	0.467 ± 0.086
R20C	0.063 ± 0.0015	0.0618 ± 0.00078	0.0634 ± 0.001
R20S	0.0634 ± 0.0021	0.061 ± 0.0023	0.063
R20N	0.06304 ± 0.00052	0.0674 ± 0.001	0.102 ± 0.0044
L58G	0.0548 ± 0.00078	0.0548 ± 0.0013	0.052 ± 0.001
L58R	0.06139 ± 0.00026	0.0651 ± 0.0029	0.0662 ± 0.00078
L58T	0.0588 ± 0.0018	0.05864 ± 0.00052	0.05644 ± 0.00052
L58I	0.05443 ± 0.00026	0.0546 ± 0.001	0.05864 ± 0.00052
P61N D64K G128M	1.01 ± 0.069	2.17 ± 0.97	4.15 ± 0.24
G42A	0.06212 ± 0.00026	0.0737 ± 0.0021	0.482 ± 0.034
I90C	0.0592 ± 0.0018	0.0656 ± 0.00052	0.568 ± 0.012
L126H	0.0603 ± 0.0018	0.0588 ± 0.00078	0.0552 ± 0.006
L126N	0.05901 ± 0.00052	0.05882 ± 0.00026	0.05333 ± 0.00026

Variant	sfGFP reporter fluorescence [1]	sfGFP reporter fluorescence ([2]; ligand: 1 µM Pb)	sfGFP reporter fluorescence ([2]; ligand: 30 µM Zn)
L126A	0.0685 ± 0.001	0.0682 ± 0.0026	0.0691 ± 0.0039
L100A	0.0803 ± 0.0015	0.131 ± 0.0044	0.663 ± 0.2
E7N	0.05919 ± 0.00026	0.088 ± 0.0047	0.858 ± 0.081
C79P	0.057 ± 0.00078	0.05772 ± 0.00026	0.05351 ± 0.00052
G6Y	0.0603 ± 0.0034	0.0608 ± 0.001	0.066
G6N	0.0607 ± 0.00078	0.0599 ± 0.0013	0.0773 ± 0.0015
G6H	0.06267 ± 0.00052	0.0603 ± 0.00078	0.0698 ± 0.0029
G6E	0.0636 ± 0.0034	0.0605 ± 0.0015	0.0625 ± 0.0034
Y22S	0.0636 ± 0.0013	0.06084 ± 0.00052	0.0619 ± 0.001
Y22A	0.06029 ± 0.00026	0.0557 ± 0.0021	0.0634 ± 0.001
Y22K	0.0625 ± 0.0018	0.0627 ± 0.001	0.0614 ± 0.0029
Y22Q	0.0627 ± 0.001	0.0612	0.0607 ± 0.0023
I125L	0.055 ± 0.001	0.05717 ± 0.00052	0.05552 ± 0.00026
I125D	0.0585 ± 0.0013	0.0583 ± 0.0031	0.0559 ± 0.0039
I125Y	0.059 ± 0.0021	0.0588 ± 0.0023	0.0552 ± 0.0029
S122A	0.06249 ± 0.00026	0.0762 ± 0.0015	0.687 ± 0.05
H142A	0.0614 ± 0.0034	0.0718 ± 0.001	0.728 ± 0.32
D131G	0.0566 ± 0.00078	0.0991 ± 0.0034	0.604 ± 0.15
D131L	0.0663 ± 0.0042	0.119 ± 0.0091	0.994 ± 0.19
I3W	0.05919 ± 0.00026	0.0766 ± 0.001	0.957 ± 0.056
